Results from patent US12296006B2, “Anti-LY6H antibodies and antibody drug conjugates” (Bluefin BioMedicine, Inc., priority 2017, dated 2025).
Changes are numbered by the printed parent chain.

B1: 12G7: human anti-LY6H antibody, VH SEQ ID NO: 22, VL SEQ ID NO: 26 (antibody, V domains shown)
VH: QVQLQQWGAGLLKPSETLSLTCAVYGGSFSGYYWSWIRQPPGKGLEWIGEINHSGSTYYNPSLKSRVTMSVDTSKNQFSLKLSSVTAADTAVYYCAKRWELGAFDIWGQGTMVTVSS
VL: DIQMTQSPSSLSASVGDRVTITCRASQGISNYLAWYQQKPGKVPKLLIYAASTLQSGVPSRFSGSGSGTDFTLTISSLQPEDVATYYCQKYNSAPRTFGQGTKLEIK
B2: 6D11: human anti-LY6H antibody, VH SEQ ID NO: 1, VL SEQ ID NO: 5 (antibody, V domains shown)
VH: QVQLQQWGAGLFKPSETLSLTCAVYGGSFSGSLWSWIRQPPGKGLEWIGEINHSGSTNYTPSLKSRVTISVDTSKNQFSLKLTSVTAADTAVYYCARGRHIVVVTAIHSPFDYWGQGTLVTVSS
VL: B1 VL with Y49F
B3: 10B10: human anti-LY6H antibody, VH SEQ ID NO: 60, VL SEQ ID NO: 26 (antibody, V domains shown)
VH: QVQLQQWGAGLLKPSETLSLTCAVYGGSFSGYYWHWIRQPPGKGLEWIGEINHSESTKYNPSLKSRVTISVDTSKNQFSLKLSSVTGADTAVYYCARGQHIVVVTDSLGDYWGQGTLVTVSS
VL: B1 VL

Assays:
DMS79 = experiment: Anti-Ly6H antibodies binding to endogenous cell lines by flow cytometry: DMS79; design: species or system human; key: (−): No binding; (+): Weak binding; (++): Moderate binding; (+++): Strong binding; (++++): Very strong binding; settings: primary antibodies 1 ug/ml, live cells on ice 30 minutes
Description: (§1) Staining for flow cytometry was performed in 1× cold PBS with 0.5% BSA. Primary antibodies (1 ug/ml) were incubated with live cells on ice for 30 minutes, after a brief wash, cells were incubated with Alexa Fluro® 488-conjugated anti-human IgG secondary antibody @1:1000 (709-546-149, Jackson ImmunoResearch). Acquisition of the data was performed on a MACSQuant© Flow Cytometers (Miltenyi Biotec) and analyzed with FlowJo software.
(§2) Fully human antibodies against LY6H were generated by hybridoma procedures. Briefly, H2L2 mice were immunized with either recombinant human Ly6H-ECD or BaF3 cells over-expressing LY6H and boosted with rabbit splenocytes expressing full length human LY6H or with ECD of LY6H recombinant protein. Splenocytes were fused with the mouse myeloma cell line X63-Ag8.653. Clones from H2L2 mice were identified by immunofluorescence (IF) based high content screening (HCS) on 293 cells overexpressing hLY6H, ratLy6H, and parental 293 cells not expressing LY6H, as well as endogenous small cell lung cancer (SCLC) cell line, H446. […] 270 hits were cryopreserved and stored in liquid nitrogen. Approximately 100 clones were selected for molecular cloning. Based on unique CDR3 sequences from the heavy chain variable domain, 10 antibodies from 8 families were chosen and confirmed by flow cytometry (MACSQuant® miltenybiotec.com) on the following cell lines. The small-cell-lung cancer cells (SCLC) included H446, DMS79, and H526 cells. The T-cell acute lymphoblastic leukemia (T-ALL) cancer cells included MOLT3 and KE-37 cells.

KE-37 = experiment: Anti-Ly6H antibodies binding to endogenous cell lines by flow cytometry: KE-37; design: species or system human; key: (−): No binding; (+): Weak binding; (++): Moderate binding; (+++): Strong binding; (++++): Very strong binding; settings: primary antibodies 1 ug/ml, live cells on ice 30 minutes
Description: as §1, §2

H446 cells = experiment: Internalization assay in H446 cells (LAMP1 co-staining); type: cell-based, human; settings: live H446 cells incubated with antibody at 37° C., fixed, permeablized, LAMP1 co-stain
Description: Live H446 cells were incubated with 12G7 for 2 hours, cells were then fixed, permeablized, and co-stained with LAMP1 antibody.
Live H446 cells were incubated with 12G7 antibody for 30 minutes at 37° C. After cytospin, cells were fixed with 4% PFA and permeablized with 100% methanol, and stained with LAMP1 antibody (#9091, Cell Signaling Technology, Inc.).

H446 = experiment: Anti-Ly6H antibodies binding to endogenous cell lines by flow cytometry: H446; design: species or system human; key: (−): No binding; (+): Weak binding; (++): Moderate binding; (+++): Strong binding; (++++): Very strong binding; settings: primary antibodies 1 ug/ml, live cells on ice 30 minutes
Description: as §1, §2

[1] = system: LY6H positive SCLC and T cell acute lymphoblastic leukemia (T-ALL) cell lines; experiment: Flow cytometry binding of 12G7 to SCLC and T-ALL cell lines (FIG. 2); design: species or system human
Description: Dotted lines represent LY6H antibody.
as §1
as §2, with “Based on unique CDR3 sequences from the heavy chain variable domain, 10 antibodies from 8 families were chosen and confirmed by flow cytometry (MACSQuant® miltenybiotec.com) on the following cell lines. The small-cell-lung cancer cells (SCLC) included H446, DMS79, and H526 cells. The T-cell acute lymphoblastic leukemia (T-ALL) cancer cells included MOLT3 and KE-37 cells.” left out

MOLT3 = experiment: Anti-Ly6H antibodies binding to endogenous cell lines by flow cytometry: MOLT3; design: species or system human; key: (−): No binding; (+): Weak binding; (++): Moderate binding; (+++): Strong binding; (++++): Very strong binding; settings: primary antibodies 1 ug/ml, live cells on ice 30 minutes
Description: as §1, §2

H69 = experiment: Anti-Ly6H antibodies binding to endogenous cell lines by flow cytometry: H69; design: species or system human; key: (−): No binding; (+): Weak binding; (++): Moderate binding; (+++): Strong binding; (++++): Very strong binding; settings: primary antibodies 1 ug/ml, live cells on ice 30 minutes
Description: as §1
as §2, with “The small-cell-lung cancer cells (SCLC) included H446, DMS79, and H526 cells. The T-cell acute lymphoblastic leukemia (T-ALL) cancer cells included MOLT3 and KE-37 cells.” left out

[2] = molecular target: H446, DMS79, H526, and MOLT3; experiment: Measurement of antibody EC50 by flow cytometry; type: binding, human; settings: 100 nM to 0.1 nM antibody
Description: The assay uses 3-5 fold dilutions (from 100 nM to 0.1 nM) of antibody of a stock antibody concentration (100 nM) in binding buffer. Serial diluted antibodies were incubated with live cells on ice for 30 minutes, after a brief wash, cells were incubated with Alexa Fluro® 488-conjugated anti-human IgG secondary antibody @1:100, or 15 ug/ml (709-546-149, Jackson ImmunoResearch). Acquisition of the MFI (Median Fluorescent Intensity) was performed on a MACSQuant® Flow Cytometers (Miltenyi Biotec). EC50 was calculated using Dose-response EC50 shift by global fitting from GraphPad Prism.
EC50 or the concentration of antibody that gives half-maximal binding is determined by direct and saturable binding of an antibody dilution series to both target positive and negative cell lines. An estimate of affinity is interpreted from one-half the concentration at which antibody binding first achieves saturation. EC50 was measured in the following cell lines H446, DMS79, H526, and MOLT3 (FIG. 4). Though EC50 may not provide an accurate measure of affinity, it allows for ranking ordering of antibodies. 12G7, 11D9, 10B10, and 6D11 were ranked top, followed by 34H6, 1F8, and 2B11.

EOL1 = experiment: Anti-Ly6H antibodies binding to endogenous cell lines by flow cytometry: EOL1; design: species or system human; key: (−): No binding; (+): Weak binding; (++): Moderate binding; (+++): Strong binding; (++++): Very strong binding; settings: primary antibodies 1 ug/ml, live cells on ice 30 minutes
Description: as §1
as §2, with “The small-cell-lung cancer cells (SCLC) included H446, DMS79, and H526 cells. The T-cell acute lymphoblastic leukemia (T-ALL) cancer cells included MOLT3 and KE-37 cells.” left out

Row | rank ordering of antibodies by EC50 (half-maximal binding) [2] | Molecule | binding by flow cytometry, DMS79 (DMS79) | binding by flow cytometry, KE-37 (KE-37) | internalization / co-localization with LAMP1 (H446 cells) | binding by flow cytometry, H446 (H446) | binding to LY6H positive SCLC and T-ALL cell lines [1] | binding by flow cytometry, MOLT3 (MOLT3) | binding by flow cytometry, H69 (H69) | binding by flow cytometry, EOL1 (EOL1)
1 | ranked top | B1 | (+++) | (++++) | internalization | (++++) | binds | (+++) | (−) | (−)
2 | ranked top | B2 | (+++) | (++++) |  | (++++) |  | (+++) |  | 
3 | ranked top | B3 | (+++) | (++++) |  | (++++) |  | (+++) |  | 
